Source: patent publication US20210047402A1 (published 2021)
Where a chain is given by its changes, count along the chain named. Read-outs that look alike come from different tables or passages of the source. Each block holds one binder with its values, some of them ahead of it.

Experiments:
[1] = target: T1, human CD22 (human, UniProt P20273 20-687); assay: BLI
In short: (§1)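 Binding affinity was measured by biolayer interferometry, with Kd taken as koff/kon. The instrument was an Octet QK-384 with anti-human IgG Fc capture biosensors, run in 1×PBS, 0.1% BSA, 0.02% Tween-20, pH 7.2. After loading at 5 μg/mL for 120 seconds, the heavy chain-only antibodies were exposed to human CD22 protein in a 7-point 1:2 series from 250 nM, with a buffer-only reference well. Rate constants came from a 1:1 binding model in Octet Data Analysis v9.0.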

[2] = target: T1, human CD22; assay: BLI; remark: listed apart in the source
In short: as §1

T1 sequence (P20273 20-687): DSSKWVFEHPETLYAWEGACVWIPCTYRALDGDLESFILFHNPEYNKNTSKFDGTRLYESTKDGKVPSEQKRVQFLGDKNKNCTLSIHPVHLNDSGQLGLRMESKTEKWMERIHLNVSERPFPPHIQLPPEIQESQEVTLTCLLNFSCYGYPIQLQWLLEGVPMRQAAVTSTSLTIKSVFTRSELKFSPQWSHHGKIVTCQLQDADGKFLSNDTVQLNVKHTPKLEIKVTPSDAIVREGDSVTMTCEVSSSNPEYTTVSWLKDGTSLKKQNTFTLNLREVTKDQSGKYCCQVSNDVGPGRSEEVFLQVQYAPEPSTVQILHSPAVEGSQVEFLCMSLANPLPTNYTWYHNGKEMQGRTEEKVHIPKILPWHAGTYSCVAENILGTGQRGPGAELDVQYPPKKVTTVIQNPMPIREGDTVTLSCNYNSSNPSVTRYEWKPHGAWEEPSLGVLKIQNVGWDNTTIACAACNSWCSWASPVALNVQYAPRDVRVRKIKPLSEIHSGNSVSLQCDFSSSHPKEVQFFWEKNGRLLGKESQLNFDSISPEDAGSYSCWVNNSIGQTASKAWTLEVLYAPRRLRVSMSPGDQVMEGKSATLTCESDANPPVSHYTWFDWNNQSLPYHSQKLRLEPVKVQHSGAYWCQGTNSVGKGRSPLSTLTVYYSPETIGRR

B1: anti-CD22 heavy chain-only antibody Clone ID 335311 (antibody, V domains shown)
VH: QLQLQESGPGLVKPSETLSLTCAVYGGSFSGYYWGWIRQPPGKGLEWIGHIYYSGATYYNPSLKNRVTISVDTSRNQFSLNLSSVTAADTAVYYCTREDSSSWRSRGQGTLVTVSS
Kd [1]: 2.66 nM

B2: anti-CD22 heavy chain-only antibody Clone ID 335179 (antibody, V domains shown)
VH: QLQLQESGPGLVKPSETLSLTCTVSGGSISSSSYYWGWFRHPPGKGLDWIGSIHYSGSTYYNPSLKSRVTISVDTSRNQFSLNLSSVTAADTAVYYCTRDDSSNWRSRGQGTLVTVSS
Kd [1]: 148 nM

B3: anti-CD22 heavy chain-only antibody Clone ID 335293 (antibody, V domains shown)
VH: QLQLQESGPGLVKPSETLSLTCTVSGDSISSGDYYWGWIRQPPGKGLEWIGHIYYSGATYYNPSLKNRVTISVDTSRNQFSLKLSSVTAADTAVYYCTREDSSSWRSRGQGTLVTVSS
Kd [2]: 7.41 nM

B4: anti-CD22 heavy chain-only antibody Clone ID 335170 (antibody, V domains shown)
VH: B3 VH with E100D, S104N
Kd [2]: 6.5 nM

B5: anti-CD22 heavy chain-only antibody Clone ID 335151 (antibody, V domains shown)
VH: B3 VH with K83N, E100D, S104N
Kd [2]: 3.77 nM

B6: anti-CD22 heavy chain-only antibody Clone ID 335301 (antibody, V domains shown)
VH: B3 VH with H52N, R77K
Kd [2]: 12.6 nM

B7: anti-CD22 heavy chain-only antibody Clone ID 335160 (antibody, V domains shown)
VH: B3 VH with H52S, R77K, E100D, S104N
Kd [2]: 8.51 nM

B9: anti-CD22 heavy chain-only antibody Clone ID 335273 (antibody, V domains shown)
VH: B3 VH with D27G, G32S, D33S, H52S, A58S, N67S, R77K
Kd [1]: 42.2 nM

B12: anti-CD22 heavy chain-only antibody Clone ID 335166 (antibody, V domains shown)
VH: B2 VH with F39I, H41Q, D48E, H54Y, S67N
Kd [1]: 33 nM

B13: anti-CD22 heavy chain-only antibody Clone ID 335189 (antibody, V domains shown)
VH: B3 VH with D27G, G32S, D33S, H52S, I53V, S56T, R77K, E100D, S104N
Kd [1]: 36 nM

B16: anti-CD22 heavy chain-only antibody Clone ID 335207 (antibody, V domains shown)
VH: B3 VH with A58V, N67S, S104N
Kd [2]: 3.24 nM

B18: anti-CD22 heavy chain-only antibody Clone ID 335208 (antibody, V domains shown)
VH: B3 VH with D27G, G32S, D33S, H52S, K83N, S104N
Kd [1]: 58.4 nM

B19: anti-CD22 heavy chain-only antibody Clone ID 335234 (antibody, V domains shown)
VH: B3 VH with H52N, R77K, S104N
Kd [2]: 12.4 nM

B20: anti-CD22 heavy chain-only antibody Clone ID 335271 (antibody, V domains shown)
VH: B3 VH with Q41H, R77K
Kd [2]: 21.6 nM

B22: anti-CD22 heavy chain-only antibody Clone ID 335333 (antibody, V domains shown)
VH: B3 VH with D27G, G32S, D33S, H52S, A58S, N67S, R77K, T98A
Kd [1]: 22.4 nM

B23: anti-CD22 heavy chain-only antibody Clone ID 335159 (antibody, V domains shown)
VH: B3 VH with D27G, G32S, D33S, A58V, R77K, V94A, E100D, S104N
Kd [1]: 16.1 nM

B24: anti-CD22 heavy chain-only antibody Clone ID 335236 (antibody, V domains shown)
VH: B2 VH with F39I, H41Q, D48E, H54Y, R77K, N83K, D100E
Kd [1]: 27.3 nM

B25: anti-CD22 heavy chain-only antibody Clone ID 335218 (antibody, V domains shown)
VH: B3 VH with S104N
Kd [2]: 8.91 nM

B26: anti-CD22 heavy chain-only antibody Clone ID 335181 (antibody, V domains shown)
VH: B3 VH with D33G, R77K, E100D, S104N
Kd [2]: 9.44 nM

B27: anti-CD22 heavy chain-only antibody Clone ID 335283 (antibody, V domains shown)
VH: B3 VH with D27G, G32S, D33S, H52S, R77K
Kd [1]: 36.9 nM

B28: anti-CD22 heavy chain-only antibody Clone ID 335150 (antibody, V domains shown)
VH: B3 VH with P42S, G44E, A58V, R77K, T98K, E100D, S104N
Kd [1]: 14.1 nM

B29: anti-CD22 heavy chain-only antibody Clone ID 335244 (antibody, V domains shown)
VH: B3 VH with K83N
Kd [2]: 5.07 nM

B30: anti-CD22 heavy chain-only antibody Clone ID 335307 (antibody, V domains shown)
VH: B3 VH with H52S, A58S, N67S, R77K
Kd [2]: 10.3 nM

B31: anti-CD22 heavy chain-only antibody Clone ID 335187 (antibody, V domains shown)
VH: B3 VH with D27G, G32S, D33S, R77K, E100D, S104N
Kd [1]: 128 nM

B32: anti-CD22 heavy chain-only antibody Clone ID 335261 (antibody, V domains shown)
VH: B3 VH with K66E, R77K
Kd [2]: 5.27 nM

B33: anti-CD22 heavy chain-only antibody Clone ID 335274 (antibody, V domains shown)
VH: B2 VH with F39I, H41Q, D48E, H54Y, D100E, N104S
Kd [1]: 23.6 nM

B35: anti-CD22 heavy chain-only antibody Clone ID 335285 (antibody, V domains shown)
VH: B3 VH with D27G, G32S, D33S, H52S, A58V, R77K
Kd [1]: 114 nM

B36: anti-CD22 heavy chain-only antibody Clone ID 335182 (antibody, V domains shown)
VH: B3 VH with H52N, R77K, E100D, S104N
Kd [2]: 22.4 nM

B37: anti-CD22 heavy chain-only antibody Clone ID 335266 (antibody, V domains shown)
VH: B3 VH with K13R, D27G, G32S, D33S, H52S, A58S, N67S, R77K
Kd [1]: 38.5 nM

B38: anti-CD22 heavy chain-only antibody Clone ID 335260 (antibody, V domains shown)
VH: B3 VH with A58V, K83N
Kd [2]: 3.17 nM

B42: anti-CD22 heavy chain-only antibody Clone ID 335297 (antibody, V domains shown)
VH: B3 VH with D27G, G32S, D33S, K83N
Kd [1]: 28.8 nM

B44: anti-CD22 heavy chain-only antibody Clone ID 335245 (antibody, V domains shown)
VH: B3 VH with R77K
Kd [2]: 7.44 nM

B49: anti-CD22 heavy chain-only antibody Clone ID 335226 (antibody, V domains shown)
VH: B3 VH with G32S, D33S, H52S, A58S, N67S, R77K, S104N
Kd [1]: 25.5 nM

B51: anti-CD22 heavy chain-only antibody Clone ID 335186 (antibody, V domains shown)
VH: B2 VH with F39I, H41Q, D48E, H54Y, R77K, N83K
Kd [1]: 17.6 nM

B52: anti-CD22 heavy chain-only antibody Clone ID 335210 (antibody, V domains shown)
VH: B3 VH with D27G, S104N
Kd [1]: 62.5 nM

B53: anti-CD22 heavy chain-only antibody Clone ID 335195 (antibody, V domains shown)
VH: B3 VH with D27G, G32S, D33S, H52S, K83N, V94M, S104N
Kd [1]: 150 nM

B55: anti-CD22 heavy chain-only antibody Clone ID 335219 (antibody, V domains shown)
VH: B3 VH with D27G, G32S, D33S, H52S, A58V, R77K, S104N
Kd [1]: 90.6 nM

B56: anti-CD22 heavy chain-only antibody Clone ID 335154 (antibody, V domains shown)
VH: B3 VH with A58V, R77K, E100D, S104N
Kd [2]: 5.41 nM

Second part, the binder after the results:

Kd [1]: 30.5 nM
B8: anti-CD22 heavy chain-only antibody Clone ID 335173 (antibody, V domains shown)
VH: B2 VH with S30T, F39I, H41Q, D48E, H54Y, R77K, N83K

Kd [2]: 2.83 nM
B10: anti-CD22 heavy chain-only antibody Clone ID 335254 (antibody, V domains shown)
VH: B3 VH with A58V, R77K

Kd [2]: 42.3 nM
B11: anti-CD22 heavy chain-only antibody Clone ID 335158 (antibody, V domains shown)
VH: B3 VH with D27G, E100D, S104N

Kd [1]: 19 nM
B14: anti-CD22 heavy chain-only antibody Clone ID 335233 (antibody, V domains shown)
VH: B3 VH with H52S, A58S, N67S, R77K, S104N

Kd [1]: 48.2 nM
B15: anti-CD22 heavy chain-only antibody Clone ID 335220 (antibody, V domains shown)
VH: B3 VH with D27G, G32S, D33S, H52S, A58S, R77K, S104N

Kd [2]: 6.8 nM
B17: anti-CD22 heavy chain-only antibody Clone ID 335203 (antibody, V domains shown)
VH: B3 VH with A58V, R77K, S104N

Kd [2]: 2.66 nM
B21: anti-CD22 heavy chain-only antibody Clone ID 335161 (antibody, V domains shown)
VH: B3 VH with K66E, R77K, E100D, S104N

Kd [1]: 23.5 nM
B34: anti-CD22 heavy chain-only antibody Clone ID 335316 (antibody, V domains shown)
VH: B3 VH with D27G, G32S, D33S, R77K

Kd [2]: 12.5 nM
B39: anti-CD22 heavy chain-only antibody Clone ID 324508 (antibody, V domains shown)
VH: B3 VH with D27G, K66E, R77K, E100D, S104N

Kd [2]: 8.43 nM
B40: anti-CD22 heavy chain-only antibody Clone ID 335185 (antibody, V domains shown)
VH: B3 VH with K83N, S104N

Kd [1]: 23.4 nM
B41: anti-CD22 heavy chain-only antibody Clone ID 335224 (antibody, V domains shown)
VH: B3 VH with H52S, S56T, A58S, N67S, R77K, S104N

Kd [1]: 53 nM
B43: anti-CD22 heavy chain-only antibody Clone ID 335188 (antibody, V domains shown)
VH: B3 VH with D27G, G32S, D33S, A58V, R77K, E100D, S104N

Kd [1]: 75.2 nM
B45: anti-CD22 heavy chain-only antibody Clone ID 335230 (antibody, V domains shown)
VH: B3 VH with G8D, D27G, G32S, D33S, Y34H, K83N, S104N

Kd [2]: 7.53 nM
B46: anti-CD22 heavy chain-only antibody Clone ID 335206 (antibody, V domains shown)
VH: B3 VH with R77K, S104N

Kd [1]: 31.6 nM
B47: anti-CD22 heavy chain-only antibody Clone ID 335295 (antibody, V domains shown)
VH: B3 VH with D27G, G32S, D33S, H52S, K83N

Kd [2]: 4.62 nM
B48: anti-CD22 heavy chain-only antibody Clone ID 335176 (antibody, V domains shown)
VH: B3 VH with R77K, E100D, S104N

Kd [2]: 14.1 nM
B50: anti-CD22 heavy chain-only antibody Clone ID 335323 (antibody, V domains shown)
VH: B3 VH with D33G, H52S, A58S, R77K

Kd [1]: 79.7 nM
B54: anti-CD22 heavy chain-only antibody Clone ID 335242 (antibody, V domains shown)
VH: B3 VH with D27G, G32S, D33S, K83N, S104N

Kd [1]: 99.6 nM
B57: anti-CD22 heavy chain-only antibody Clone ID 335162 (antibody, V domains shown)
VH: QLQLQESGPGLVKPSETLSLTCTVSGGSIISSSYYWGWIRQPPGKGLEWIGSIYYSGSAYYHPSLKSRVTISIDTSKNQFSLKLSSVTAADTAVYYCARDDSSNWRSRGQGTLVTVSS
